Test results from the Human Domainome abundance scans (Beltran et al. 2025).

B1: Far upstream element-binding protein 3, residues 75 to 150; numbered along this chain, Q96I24 (parent)
chain: RTVITEEFKVPDKMVGFIIGRGGEQISRIQAESGCKIQIASESSGIPERPCVLTGTPESIEQAKRLLGQIVDRCRN

Variants of: B1
Assay: abundance fitness (aPCA) (normalised: wild type 0, dead -1); higher = more abundant; growth selection in yeast, the domain comes from the species named
Details: Homo sapiens

Abundance fitness, by site and new letter:
L67: S -0.811 | Q -0.839 | R -1.01 | D -0.884 | N -0.884 | E -0.757 | H -0.908 | A -0.845 | F -0.367 | M -0.099 | T -0.666 | W -0.981 | P -0.649 | I -0.131 | Y -1.04 | G -0.864 | C -0.397 | K -0.834
G68: H -0.066 | Y -0.045 | T -0.06 | N -0.043 | E -0.026 | P -0.723 | L -0.046 | F -0.17 | A -0.066 | R -0.036 | V -0.017 | S -0.065 | D -0.001 | M 0.001 | I -0.092 | C -0.066 | W -0.065
Q62: R -0.043 | K -0.019 | S -0.023 | F -0.043 | D -0.005 | V -0.008 | M -0.023 | G -0.055 | A -0.01 | N -0.041 | Y -0.096 | C -0.011 | L -0.044 | H -0.011 | W -0.102 | I -0.043
Q69: F -0.181 | R 0.005 | D 0.021 | K -0.046 | C -0.076 | P -0.156 | S -0.002 | E 0.025 | G -0.012 | M -0.03 | A -0.006 | W -0.283 | H 0.021 | V -0.009 | N -0.059 | I 0.02
P57: L -0.112 | V -0.06 | Y -0.133 | W -0.073 | F -0.103 | R -0.013 | Q -0.023 | A -0.013 | K -0.009 | G -0.113 | H -0.096 | I -0.131 | C -0.143 | D -0.182 | N -0.1 | T 0.006 | S -0.109 | E -0.045 | M -0.111
C74: Y -0.126 | Q -0.002 | S -0.01 | I -0.057 | D -0.068 | A 0.02 | N -0.007 | W -0.022 | R 0.008 | E -0.041 | V -0.037 | K -0.027 | G 0.041 | M -0.021 | H 0.031 | T 0.004
T56: R -0.107 | I -0.225 | S -0.013 | M -0.183 | Y -0.049 | N -0.105 | W -0.332 | K -0.166 | P -0.094 | Q -0.127 | L -0.138 | H -0.106
R65: W -0.069 | I 0.057 | D -0.031 | Q -0.004 | E 0.013 | C -0.092 | A -0.031 | K 0.012 | N 0.013 | G -0.053 | L -0.017 | V -0.006 | Y -0.046 | S -0.026 | T -0.014 | F 0.017
D72: Q -0.086 | E 0.003 | L -0.083 | K -0.048 | G -0.033 | N -0.155 | F -0.118 | P -0.142 | I -0.225 | A -0.052 | C -0.138 | V -0.093 | W -0.108 | H -0.023 | M -0.084 | S -0.035 | Y -0.124 | T -0.1
E61: I -0.105 | A -0.037 | R -0.046 | P -0.553 | D 0.027 | N -0.064 | T -0.009 | K -0.026 | W -0.111 | L -0.082 | C -0.078 | F -0.035 | V -0.046 | S -0.026 | G -0.017 | H -0.031 | Q -0.018
A63: C -0.03 | V -0.31
